# Data from PMC9170159 (Proceedings of the National Academy of Sciences of the …, 2022).
# Columns and labels:
# [1] = biological target: SARS-CoV-2 spike receptor-binding domain (RBD), Wuhan-Hu-1, His-tagged (SARS-CoV-2 (Wuhan-Hu-1), UniProt P0DTC2); test: BLI; details: both partners purified
# [2] = biological target: SARS-CoV-2 (Wuhan-Hu-1) spike receptor-binding domain, His-tagged (SARS-CoV-2, UniProt P0DTC2 319-541); test: BLI; details: both partners purified
Binder,Kd [1] [nM],Kd [2] [nM]
NCI-CoV-8A2 monomeric VHH (VHH-His) (VHH) VHH: AVQLVDSGGGSVQAGGSLRLSCAASGYTYSICTMGWYRQAPGEGLEWVSGINADGSNTHYTDSVKGRFTISRDNAKKTLYLQMNSLKPEDTAIYYCAAHGTYDKYAPCGGFAGTYTYWGQGTQVTVSS,0.8,
"NCI-CoV-2F7 VHH-hFc fusion protein (Fc fusion, also called 2F7 VHH-Fc; source: Expi293 cells, transfected, purified (protein A column)) VHH: QVKLEESGGGSVQSGGSLRLSCTVSRDTNTNINRCMGWFRQAPGKGLETVATINRDGTNTYYTDAVKGRFTISQDNVKNTVYLQMNNLTPEDTGTYICNAMGRGSGSRCDNWDPNYWGQGTQVTVSS",,0.77
NCI-CoV-2F7 monomeric VHH (VHH-His) (VHH) VHH: QVKLEESGGGSVQSGGSLRLSCTVSRDTNTNINRCMGWFRQAPGKGLETVATINRDGTNTYYTDAVKGRFTISQDNVKNTVYLQMNNLTPEDTGTYICNAMGRGSGSRCDNWDPNYWGQGTQVTVSS,0.75,
NCI-CoV-7A3 monomeric VHH (VHH-His) (VHH) VHH: QVQLVESGGGSVQPGGSLRLSCVVSGYTSSSRYMGWFRQVPGKGLEWVSGIKRDGTNTYYADSVKGRFTISQDNAKNTVYLQMNSLKPEDTAMYYCAAGSWYNQWGYSMDYWGKGTQVTVSS,0.96,
